The source of these data is patent US20140087995A1 (published 2014).

Numbered stars: 1 amine (or outer) side, 2 acyl side, 3 side chain; on linkers, the order of the positions; unused ones are H or OH. Bridge positions count the residues as written; N and C are the ends. Side chains are listed from the residue outwards. Ends that are not written are not given here. * marks the point of attachment. C20 diacid = O=C(O)CCCCCCCCCCCCCCCCCCC(=O)*; γGlu = O=C(O)[C@H](CCC(=O)[*:2])N[*:1]; AEEA = NCCOCCOCC(=O)O

Assay [1] deals with T1, human calcitonin receptor (human, UniProt P30988 25-474).
T1 construct: whole, on cells; Assayed as cell membranes of BHK tk'ts 13 cells stably transfected with the human calcitonin receptor (Assay VII); also called hCTR; hCT
T1 sequence (looked up): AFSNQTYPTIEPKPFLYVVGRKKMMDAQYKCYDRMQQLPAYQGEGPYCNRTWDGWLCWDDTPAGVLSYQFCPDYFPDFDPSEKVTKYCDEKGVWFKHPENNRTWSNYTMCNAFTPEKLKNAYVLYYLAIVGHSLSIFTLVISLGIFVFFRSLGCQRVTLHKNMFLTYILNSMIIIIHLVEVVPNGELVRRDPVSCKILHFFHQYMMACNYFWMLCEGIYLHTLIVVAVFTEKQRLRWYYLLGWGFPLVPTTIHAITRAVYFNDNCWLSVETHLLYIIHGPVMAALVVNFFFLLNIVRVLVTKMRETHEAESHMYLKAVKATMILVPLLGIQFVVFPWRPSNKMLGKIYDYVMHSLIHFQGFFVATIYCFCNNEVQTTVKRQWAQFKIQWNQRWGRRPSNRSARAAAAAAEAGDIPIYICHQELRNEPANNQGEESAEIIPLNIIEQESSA
Put plainly: SPA competition vs 125I-calcitonin, membranes of BHK cells with human calcitonin receptor (Assay VII). Put shortly:
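BHK hCTR membranes 35 ng/μL + SPA beads 0.05 mg/well; buffer 50 mM Hepes pH 7.4, 1 mM CaCl2, 5 mM MgCl₂, 0.1% OA, 0.02% Tween20. 120 min, 25° C., shaking. Scintillation count; IC50 by one-site binding competition.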

The target in assay [2] is T1, human calcitonin receptor. Put plainly: IC50 at hCTR divided by IC50 at hAmylin-R (SPA competition assays V and VII). Put shortly:
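IC₅₀ values were derived by one-site competition analysis of SPA counts. Cell membranes (35 ng/μL) with SPA beads were incubated with test compounds for 120 min at 25° C in Hepes buffer, pH 7.4, containing CaCl2, MgCl₂, OA and Tween20.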

B1: N^ε1-[(4S)-4-carboxy-4-(19-carboxynonadecanoylamino)butanoyl]-[His14,Arg17,Pro21,Pro27]-h-amylin (peptide)
peptide: K([γGlu-C20 diacid])CNTATCATQRLAHFLRHSSPNFGAIPSSTNVGSNTY-NH2
modifications: disulfide 2-7; N-terminus assumed
SMILES: CC[C@H](C)[C@H](NC(=O)[C@H](C)NC(=O)CNC(=O)[C@H](Cc1ccccc1)NC(=O)[C@H](CC(N)=O)NC(=O)[C@@H]1CCCN1C(=O)[C@H](CO)NC(=O)[C@H](CO)NC(=O)[C@H](Cc1c[nH]cn1)NC(=O)[C@H](CCCNC(=N)N)NC(=O)[C@H](CC(C)C)NC(=O)[C@H](Cc1ccccc1)NC(=O)[C@H](Cc1c[nH]cn1)NC(=O)[C@H](C)NC(=O)[C@H](CC(C)C)NC(=O)[C@H](CCCNC(=N)N)NC(=O)[C@H](CCC(N)=O)NC(=O)[C@@H](NC(=O)[C@H](C)NC(=O)[C@@H]1CSSC[C@H](NC(=O)[C@@H](N)CCCCNC(=O)CC[C@H](NC(=O)CCCCCCCCCCCCCCCCCCC(=O)O)C(=O)O)C(=O)N[C@@H](CC(N)=O)C(=O)N[C@@H]([C@@H](C)O)C(=O)N[C@@H](C)C(=O)N[C@@H]([C@@H](C)O)C(=O)N1)[C@@H](C)O)C(=O)N1CCC[C@H]1C(=O)N[C@@H](CO)C(=O)N[C@@H](CO)C(=O)N[C@H](C(=O)N[C@@H](CC(N)=O)C(=O)N[C@H](C(=O)NCC(=O)N[C@@H](CO)C(=O)N[C@@H](CC(N)=O)C(=O)N[C@H](C(=O)N[C@@H](Cc1ccc(O)cc1)C(N)=O)[C@@H](C)O)C(C)C)[C@@H](C)O
notes: also called compound 70
In general, IC50 refers to the concentration at which inhibition is half-maximal. In the case of B1, in assay [1], the IC50 was 10.3 nM. For the same molecule, the “Ratio hCT/hAmylin binding” value in assay [2] came to 60.8.

B2: N^ε1-[(4S)-4-carboxy-4-[[(4S)-4-carboxy-4-(19-carboxynonadecanoylamino)butanoyl]amino]butanoyl]-[His14,Arg17,Pro21,Pro27]-h-amylin (peptide)
peptide: K([γGlu-γGlu-C20 diacid])CNTATCATQRLAHFLRHSSPNFGAIPSSTNVGSNTY-NH2
modifications: disulfide 2-7; N-terminus assumed
SMILES: CC[C@H](C)[C@H](NC(=O)[C@H](C)NC(=O)CNC(=O)[C@H](Cc1ccccc1)NC(=O)[C@H](CC(N)=O)NC(=O)[C@@H]1CCCN1C(=O)[C@H](CO)NC(=O)[C@H](CO)NC(=O)[C@H](Cc1c[nH]cn1)NC(=O)[C@H](CCCNC(=N)N)NC(=O)[C@H](CC(C)C)NC(=O)[C@H](Cc1ccccc1)NC(=O)[C@H](Cc1c[nH]cn1)NC(=O)[C@H](C)NC(=O)[C@H](CC(C)C)NC(=O)[C@H](CCCNC(=N)N)NC(=O)[C@H](CCC(N)=O)NC(=O)[C@@H](NC(=O)[C@H](C)NC(=O)[C@@H]1CSSC[C@H](NC(=O)[C@@H](N)CCCCNC(=O)CC[C@H](NC(=O)CC[C@H](NC(=O)CCCCCCCCCCCCCCCCCCC(=O)O)C(=O)O)C(=O)O)C(=O)N[C@@H](CC(N)=O)C(=O)N[C@@H]([C@@H](C)O)C(=O)N[C@@H](C)C(=O)N[C@@H]([C@@H](C)O)C(=O)N1)[C@@H](C)O)C(=O)N1CCC[C@H]1C(=O)N[C@@H](CO)C(=O)N[C@@H](CO)C(=O)N[C@H](C(=O)N[C@@H](CC(N)=O)C(=O)N[C@H](C(=O)NCC(=O)N[C@@H](CO)C(=O)N[C@@H](CC(N)=O)C(=O)N[C@H](C(=O)N[C@@H](Cc1ccc(O)cc1)C(N)=O)[C@@H](C)O)C(C)C)[C@@H](C)O
notes: also called compound 92
Consider B2, for which the IC50 in assay [1] is 26 nM. Besides, the “Ratio hCT/hAmylin binding” value in assay [2] was found to be 145.

B3: N^ε21-[(4S)-4-carboxy-4-[[(4S)-4-carboxy-4-(19-carboxynonadecanoylamino)butanoyl]amino]butanoyl]-[Asp14,Arg17,Lys21,Pro27,Asp35]-h-amylin (peptide)
peptide: KCNTATCATQRLADFLRHSSK([γGlu-γGlu-C20 diacid])NFGAIPSSTNVGSDTY-NH2
modifications: disulfide 2-7; N-terminus assumed
SMILES: CC[C@H](C)[C@H](NC(=O)[C@H](C)NC(=O)CNC(=O)[C@H](Cc1ccccc1)NC(=O)[C@H](CC(N)=O)NC(=O)[C@H](CCCCNC(=O)CC[C@H](NC(=O)CC[C@H](NC(=O)CCCCCCCCCCCCCCCCCCC(=O)O)C(=O)O)C(=O)O)NC(=O)[C@H](CO)NC(=O)[C@H](CO)NC(=O)[C@H](Cc1c[nH]cn1)NC(=O)[C@H](CCCNC(=N)N)NC(=O)[C@H](CC(C)C)NC(=O)[C@H](Cc1ccccc1)NC(=O)[C@H](CC(=O)O)NC(=O)[C@H](C)NC(=O)[C@H](CC(C)C)NC(=O)[C@H](CCCNC(=N)N)NC(=O)[C@H](CCC(N)=O)NC(=O)[C@@H](NC(=O)[C@H](C)NC(=O)[C@@H]1CSSC[C@H](NC(=O)[C@@H](N)CCCCN)C(=O)N[C@@H](CC(N)=O)C(=O)N[C@@H]([C@@H](C)O)C(=O)N[C@@H](C)C(=O)N[C@@H]([C@@H](C)O)C(=O)N1)[C@@H](C)O)C(=O)N1CCC[C@H]1C(=O)N[C@@H](CO)C(=O)N[C@@H](CO)C(=O)N[C@H](C(=O)N[C@@H](CC(N)=O)C(=O)N[C@H](C(=O)NCC(=O)N[C@@H](CO)C(=O)N[C@@H](CC(=O)O)C(=O)N[C@H](C(=O)N[C@@H](Cc1ccc(O)cc1)C(N)=O)[C@@H](C)O)C(C)C)[C@@H](C)O
notes: also called compound 59
Turning to B3, in assay [1], the IC50 was 5.14 nM. For the same molecule, the “Ratio hCT/hAmylin binding” value in assay [2] is 4.3.

B4: N^ε1-[2-[2-[2-(19-carboxynonadecanoylamino)ethoxy]ethoxy]acetyl]-[His14,Arg17,Pro21,Pro27]-h-amylin (peptide)
peptide: K([AEEA-C20 diacid])CNTATCATQRLAHFLRHSSPNFGAIPSSTNVGSNTY-NH2
modifications: disulfide 2-7; N-terminus assumed
SMILES: CC[C@H](C)[C@H](NC(=O)[C@H](C)NC(=O)CNC(=O)[C@H](Cc1ccccc1)NC(=O)[C@H](CC(N)=O)NC(=O)[C@@H]1CCCN1C(=O)[C@H](CO)NC(=O)[C@H](CO)NC(=O)[C@H](Cc1c[nH]cn1)NC(=O)[C@H](CCCNC(=N)N)NC(=O)[C@H](CC(C)C)NC(=O)[C@H](Cc1ccccc1)NC(=O)[C@H](Cc1c[nH]cn1)NC(=O)[C@H](C)NC(=O)[C@H](CC(C)C)NC(=O)[C@H](CCCNC(=N)N)NC(=O)[C@H](CCC(N)=O)NC(=O)[C@@H](NC(=O)[C@H](C)NC(=O)[C@@H]1CSSC[C@H](NC(=O)[C@@H](N)CCCCNC(=O)COCCOCCNC(=O)CCCCCCCCCCCCCCCCCCC(=O)O)C(=O)N[C@@H](CC(N)=O)C(=O)N[C@@H]([C@@H](C)O)C(=O)N[C@@H](C)C(=O)N[C@@H]([C@@H](C)O)C(=O)N1)[C@@H](C)O)C(=O)N1CCC[C@H]1C(=O)N[C@@H](CO)C(=O)N[C@@H](CO)C(=O)N[C@H](C(=O)N[C@@H](CC(N)=O)C(=O)N[C@H](C(=O)NCC(=O)N[C@@H](CO)C(=O)N[C@@H](CC(N)=O)C(=O)N[C@H](C(=O)N[C@@H](Cc1ccc(O)cc1)C(N)=O)[C@@H](C)O)C(C)C)[C@@H](C)O
notes: also called compound 90
Turning to B4, the IC50 in assay [1] is 2.57 nM. For the same molecule, the “Ratio hCT/hAmylin binding” value in assay [2] came out at 42.2.
